Tests used:
[1] = biological target: T1, human CD203c expressed on the surface of KU812 cells (human, UniProt O14638 1-875); assay: flow cytometry on KU812 cells
T1 construct: whole, on cells; also called cell-surface CD203c; cell surface CD203c on KU812 cells
T1 sequence (looked up): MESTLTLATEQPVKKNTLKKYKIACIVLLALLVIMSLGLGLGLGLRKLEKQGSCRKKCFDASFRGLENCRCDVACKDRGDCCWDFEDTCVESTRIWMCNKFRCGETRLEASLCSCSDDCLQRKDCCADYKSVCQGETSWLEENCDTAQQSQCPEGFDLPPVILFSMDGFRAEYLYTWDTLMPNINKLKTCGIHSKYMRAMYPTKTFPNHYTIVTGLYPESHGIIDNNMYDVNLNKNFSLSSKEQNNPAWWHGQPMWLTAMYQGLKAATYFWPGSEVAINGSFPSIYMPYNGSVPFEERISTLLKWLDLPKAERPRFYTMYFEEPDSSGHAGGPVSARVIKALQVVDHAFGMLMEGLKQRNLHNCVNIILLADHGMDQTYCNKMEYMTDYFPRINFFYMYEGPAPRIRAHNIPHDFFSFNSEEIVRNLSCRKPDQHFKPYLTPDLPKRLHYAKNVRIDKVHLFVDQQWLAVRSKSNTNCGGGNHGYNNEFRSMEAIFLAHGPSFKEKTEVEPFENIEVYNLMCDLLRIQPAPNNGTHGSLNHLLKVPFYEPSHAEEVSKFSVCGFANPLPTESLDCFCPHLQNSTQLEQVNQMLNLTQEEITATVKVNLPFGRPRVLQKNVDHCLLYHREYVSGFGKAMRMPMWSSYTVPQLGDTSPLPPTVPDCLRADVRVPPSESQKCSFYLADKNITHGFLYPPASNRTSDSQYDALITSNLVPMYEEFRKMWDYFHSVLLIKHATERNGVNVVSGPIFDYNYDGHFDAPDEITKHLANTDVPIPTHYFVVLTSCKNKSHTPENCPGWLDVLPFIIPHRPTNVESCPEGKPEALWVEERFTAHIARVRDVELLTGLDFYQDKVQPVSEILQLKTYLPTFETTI
Experimental: All treatments were performed on cells seeded in T75 flasks at a seeding density of 0.3e6/ml. Cells were cultured in the presence of 80 ng/ml of SCF and treated with 20 ng/ml of IL3 24 hours prior to antibody staining. Following SCF/IL3 treatment, cells were harvested and stained with live dead stain (Zombie UV Biolegend 423108). Cells were then stained with a titration of anti-CD203c antibodies/bispecifics or respective isotype controls in a 5-fold dilution series starting at 50 μg/mL and detected with Anti human-Fc AF647 antibody (JIR 109-605-098). Samples were subsequently run on a Yeti analyzer, gating on 10K live cells. Subsequent analysis was performed using FlowJo software and data represented as MFI (median fluorescent intensity).

[2] = biological target: T2, rhesus monkey CD203c His-tagged recombinant protein (rhesus monkey, UniProt F6TH66 31-874); assay: direct binding ELISA on coated recombinant rhesus CD203c
T2 construct: also called rhesus CD203c; not shown: His tag
T2 sequence: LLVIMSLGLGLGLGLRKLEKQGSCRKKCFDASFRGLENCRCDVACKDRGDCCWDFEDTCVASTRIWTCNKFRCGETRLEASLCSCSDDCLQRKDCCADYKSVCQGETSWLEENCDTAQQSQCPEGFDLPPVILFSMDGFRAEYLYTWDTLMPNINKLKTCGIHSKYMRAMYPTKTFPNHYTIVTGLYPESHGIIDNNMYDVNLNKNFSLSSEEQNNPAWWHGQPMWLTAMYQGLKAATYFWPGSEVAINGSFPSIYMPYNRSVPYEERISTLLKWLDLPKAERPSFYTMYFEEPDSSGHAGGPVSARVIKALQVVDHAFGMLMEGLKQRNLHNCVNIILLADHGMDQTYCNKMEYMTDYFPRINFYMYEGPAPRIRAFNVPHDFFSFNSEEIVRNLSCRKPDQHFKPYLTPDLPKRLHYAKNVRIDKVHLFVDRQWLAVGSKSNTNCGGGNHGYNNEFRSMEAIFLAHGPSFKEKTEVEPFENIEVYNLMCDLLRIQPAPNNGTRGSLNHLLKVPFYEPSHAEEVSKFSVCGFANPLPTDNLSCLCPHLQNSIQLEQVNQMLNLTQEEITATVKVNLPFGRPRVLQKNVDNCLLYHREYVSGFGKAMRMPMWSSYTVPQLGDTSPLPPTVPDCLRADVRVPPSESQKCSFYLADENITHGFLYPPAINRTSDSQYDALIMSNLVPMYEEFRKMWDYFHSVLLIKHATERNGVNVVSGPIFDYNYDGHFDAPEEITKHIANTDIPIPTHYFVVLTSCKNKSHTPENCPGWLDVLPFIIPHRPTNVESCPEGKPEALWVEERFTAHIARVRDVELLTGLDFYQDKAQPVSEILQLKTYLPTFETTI
Experimental: (§1) Binding and cross-reactivity of the molecules to the human, rhesus, and cynomolgus CD203c was initially assessed by binding ELISA. The human CD203c His-tagged recombinant protein and the rhesus monkey CD203c His-tagged recombinant protein were coated to the surface of MaxiSorp™ flat-bottom 96 well plates at a concentration of 1 μg/ml. The purified samples were titrated in 5-fold serial dilutions starting from 100 nM and allowed to bind to the coated antigens. The IgGs were detected using mouse anti-human IgG conjugated to horseradish peroxidase. Binding signals were visualized with 3,3′,5,5′-Tetramethylbenzidine Substrate Solution (TMB) and the absorbance measured at 450 nm.

[3] = biological target: T3, human CD203c His-tagged recombinant protein (human, UniProt O14638 49-875, limits assumed); assay: direct binding ELISA on coated recombinant human CD203c
T3 construct: also called ENPP3; not shown: His tag
T3 sequence (looked up): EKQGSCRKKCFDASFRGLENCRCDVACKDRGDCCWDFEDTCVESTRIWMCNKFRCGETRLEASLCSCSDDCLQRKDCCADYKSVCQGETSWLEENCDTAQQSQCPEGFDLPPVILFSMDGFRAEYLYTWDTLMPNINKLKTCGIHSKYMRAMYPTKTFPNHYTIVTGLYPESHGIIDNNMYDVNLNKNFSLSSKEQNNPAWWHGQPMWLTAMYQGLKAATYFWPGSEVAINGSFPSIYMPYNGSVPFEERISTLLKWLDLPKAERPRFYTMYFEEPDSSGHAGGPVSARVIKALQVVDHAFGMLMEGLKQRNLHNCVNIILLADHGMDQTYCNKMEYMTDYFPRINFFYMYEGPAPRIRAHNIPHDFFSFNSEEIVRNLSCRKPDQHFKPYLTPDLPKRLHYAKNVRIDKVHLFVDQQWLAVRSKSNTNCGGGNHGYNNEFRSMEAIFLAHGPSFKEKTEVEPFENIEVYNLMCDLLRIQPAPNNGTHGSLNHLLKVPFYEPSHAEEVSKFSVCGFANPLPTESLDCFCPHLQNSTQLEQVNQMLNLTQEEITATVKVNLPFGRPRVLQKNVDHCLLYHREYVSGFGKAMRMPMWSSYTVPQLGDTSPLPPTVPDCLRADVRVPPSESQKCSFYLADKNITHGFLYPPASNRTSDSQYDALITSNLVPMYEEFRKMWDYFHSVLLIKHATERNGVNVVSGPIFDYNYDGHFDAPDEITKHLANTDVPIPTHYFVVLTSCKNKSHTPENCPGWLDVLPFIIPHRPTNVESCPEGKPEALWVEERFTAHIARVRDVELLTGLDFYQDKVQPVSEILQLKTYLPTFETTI
Experimental: as §1

EC50 [1]: 98.2 nM | binding result [2]: binds | EC50 (read off the curve) [3]: ~7 nM
B1: anti-CD203c 1.27 IgG (parental clone, MH1 common light chain) (antibody, V domains shown)
VH: EVQLVQSGAEVKKPGESLKISCKGSGYRFTSYWIGWVRQMPGKGLEWMGIIYPGDSDTRYSPSFQGQVTISADKSISTAYLQWSSLKASDTAMYYCARKDYYYYAMDVWGQGTTVTVSS
VL: DIQMTQSPSSLSASVGDRVTITCRASQGIRTNLAWFQQKPGKAPKSLIYAASSLQSGVPSRFSGSGSGTDFTLTISSLQPEDFATYYCQQYNSYPRTFGGGTKVEIK
notes: IgG1null (human IgG1 with L234A, L235A, G237A) and human Ckappa
